From patent US20140308301A1

Assays:
[1] = target: human CD44 (human) (UniProt P16070); experiment: flow cytometry, Alexa647-RG7356 on CLL B cells with mutated IGVH gene
[2] = target: human CD44 (human) (UniProt P16070); experiment: flow cytometry, Alexa647-RG7356 on CD19+CD5+ CLL B cells (n=59)
[3] = target: human CD44 (human) (UniProt P16070); experiment: cell-based or functional assay
[4] = target: human CD44 (human) (UniProt P16070); experiment: flow cytometry, Alexa647-RG7356 on CLL B cells with ZAP-70 expression
[5] = target: human CD44 (human) (UniProt P16070); experiment: flow cytometry, Alexa647-RG7356 on CLL B cells with low or no ZAP-70 expression
[6] = target: human CD44 (human) (UniProt P16070); experiment: flow cytometry, Alexa647-RG7356 on CLL B cells with unmutated IGVH gene
[7] = target: human CD44 (human) (UniProt P16070); experiment: flow cytometry, Alexa647-RG7356 on CD19+ normal B cells of healthy adults (n=8)

## humanized anti-CD44 monoclonal antibody (RG7356, Roche)
[1]
  median MFIR (MFI of CD44 mAb divided by MFI of control mAb): 118
[2]
  median MFIR (MFI of CD44 mAb divided by MFI of control mAb): 132
[3]
  internalization of cell surface CD44 (reduction of MFI of Alexa647-conjugated RG7356 on CLL cells at 37 C, flow cytometry): > 40%
[4]
  median MFIR (MFI of CD44 mAb divided by MFI of control mAb): 161
[5]
  median MFIR (MFI of CD44 mAb divided by MFI of control mAb): 119
[6]
  median MFIR (MFI of CD44 mAb divided by MFI of control mAb): 161
[7]
  median MFIR (MFI of CD44 mAb divided by MFI of control mAb): 112
